Test results taken from patent publication US20210292393A1 (published 2021).
Where a chain is given by its changes, count along the chain named.

B1: antibody 419 (antibody, V domains shown)
VH: QVQLVQSGAEVKKPGASVKVSCKASGYTFTSYYMHWVRQAPGQGLEWMGIINPSGGSTSYAQKFQGRVTMTRDTSTSTVYMELSSLRSEDTAVYYCARDWTQSSGYDYYYGLDVWGQGTTVTVSS
VL: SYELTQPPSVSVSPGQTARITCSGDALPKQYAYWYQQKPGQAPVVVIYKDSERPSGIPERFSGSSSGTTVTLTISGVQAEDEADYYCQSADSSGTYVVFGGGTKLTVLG
B2: antibody 405 (antibody, V domains shown)
VH: not shown
VL: QSALTQPRSVSGSPGQSVTISCTGTSSDVGGYNYVSWYQQHPGKAPKLMIYDVSKRPSGVPDRFSGSKSGNTASLTISGLQAEDEADYYCCSYAGSYNVVFGGGTKLTVL
B3: anti-SARS-CoV-2 antibody 496 (antibody, V domains shown)
VH: QVQLVQSGAEVKKPGASVKVSCKASGYTFTDYYIHWVRQAPGQGLEWMGWINPNSGGTNYAQKFQGRLTMTRDTSISTAYMELSRLRSDDTAVYYCARVYSMFREFIINPYYYYYGLDVWGQGTTVTVSS
VL: QSALTQPASVSGSPRQSITISCTGTSSDVGSYNLVSWYQQHPGKAPKLMIYEGSKRPSGVSNRFSGSKSGNTASLAISGLQAEDEANYYCCSYAGSSTLVFGGGTKLTVL
B4: anti-SARS-CoV-2 antibody 475 (antibody, V domains shown)
VH: QVQLVESGGGVVQPGRSLRLSCAASGFTFSSYAMHWVRQAPGKGLEWVTFISHEGSNKYYADSVKGRFTISRDNSKNTLYLQMNSLRAEDTAVYYCARTFEYSSSSATGDFDYWGQGTLVTVSS
VL: QSVLTQPPSVSGAPGQRVTISCTGSSSNIGAGYDVHWYQQLPGTAPKLLIYGNSNRPSGVPDRFSGSKSGTSASLAITGLQAEDEADYYCQSYDSSLSGVVFGGGTKLTVL
B5: antibody 414 (antibody, V domains shown)
VH: QVQLVQSGAEVKKPGASVKVSCKASGYTFTSYYMHWVRQAPGQGLEWMGIINPSGGSTSYAQKFQGRVTMTRDTSTSTVYMELSSLRSEDTAVYYCARDPPGRDFWSGYYFGAPDYYYYYGMDVWGQGTTVTVSS
VL: DIQMTQSPSSLSASVGDRVTITCRASQGISNYLAWFQQKPGKAPKSLIYAASSLQSGVPSKFSGSGSGTDFTLTISSLQPEDFATYYCQQYNSYPYTFGQGTKLEIKR
B6: antibody 431 (antibody, V domains shown)
VH: QVQLVESGGGVVQPGRSLRLSCAASGFTFSSYAMHWVRQAPGKGLEWLAVISYDGSNKYYADSVKGRFTISRDNSKNTLYLQMNSLRAEDTAVYYCARSFRGGYYYGMDVWGQGTTVTVSS
VL: DIQLTQSPSFLSASVGDRVTITCRASQGISSYLAWYQQKPGKAPKLLIYAASTLQSGVPSRFSGSGSGTEFTLTISSLQPEDFATYYCQQLNSYPLFTFGPGTKVDIK
B7: antibody 421 (antibody, V domains shown)
VH: QVQLVESGGGVVQPGRSLRLSCAASGFTFSTYAMHWVRQAPGKGLEWVAVISYDGSNKYYADSVKGRFTISRDNSKNTLYLQMNSLRAEDTAVYYCARGYGSGSYYPLYLYWGQGTLVTVSS
VL: not shown
B8: antibody 364 (antibody, V domains shown)
VH: EVQLVESGGGLVQPGRSLRLSCTASGFTFGDYAMSWFRQAPGKGLEWVGFIRSKAYGGTTEYAASVKGRFTISRDDSKSIAYLQMNSLKTEDTAVYYCTRFGIDYDYIWGSYRYTTLFDYWGQGTLVTVSS
VL: not shown
B9: antibody 423 (antibody, V domains shown)
VH: EVQLVESGGGLIQPGGSLRISCAASGFTVRNNHMSWVRQAPGKGLEWVSVFYRGGTTYYADSVKGRFTISRDDSKNTVDLQMNSLRGEDTAVYYCARGLSVAASGYFDCWGQGTLVTVSS
VL: DIQMTQSPSSVSASVGDTVTITCRANQGISSWLAWYQQVPGKAPELLIYATSTLQSGVPSRFSGSGSGTDFTLTISSLQPEDFATYYCQQANSFPFTFGPGTKVDIK
B10: anti-SARS-CoV-2 antibody 477 (antibody, V domains shown)
VH: QVQLVESGGGVVQPGRSLRLSCAASGITFSSYAMHWVRQAPGKGLEWVAVISYDGSDKYHADSVKGRFAISRDNSKNTLYLQMNSLRAEDTAVYYCAKDKGIAVAGTGWIRPDPEYYFDYWGQGTLVTVSS
VL: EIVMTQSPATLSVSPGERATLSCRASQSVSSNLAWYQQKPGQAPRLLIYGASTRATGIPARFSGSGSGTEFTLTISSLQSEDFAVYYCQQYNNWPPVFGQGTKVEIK
B11: antibody 420 (antibody, V domains shown)
VH: QVQLVESGGGVVQPGRSLRLSCAASGFTFSSYGMHWVRQAPGKGLEWVAVIWYDGSNKYYADSVKGRFTISRDNSKNTLYLQMNSLRAEDTAVYYCAKDGGDYGDVNFDYWGQGTLVTVSS
VL: SYELTQPPSVSVSPGQTARITCSGDALPKQYAYWYQQKPGQAPVLVIYKDSERPSGIPERFSGSSSGTTVTLTISGVQAEDEADYYCQSAGSSGNYKVFGGGTKLTVL
B12: anti-SARS-CoV-2 antibody 476 (antibody, V domains shown)
VH: QVQLVQSGSELKKPGASVKVSCKASGYTFTSYAMNWVRQAPGQGLEWMGWINTNTGNPTYAQGFTGRFVFSLDTSVSTAYLQISSLKAEDTGVYYCARDHELPNSSSWFGHFEYWGQGTLVTVSS
VL: B11 VL with P39A, P54R, G91D, N95T, Y96S, K97V
B13: antibody 422 (antibody, V domains shown)
VH: QVQLVQSGSELKKPGASVKVSCKASGYTFTSYAMNWVRQAPGQGLEWMGWINTNTGNPTYAQGFTGRFVFSLDTSVSTTYLQISSLKAEDTAVYYCARVIGVVTYYYYGMDVWGQGTTVTVSS
VL: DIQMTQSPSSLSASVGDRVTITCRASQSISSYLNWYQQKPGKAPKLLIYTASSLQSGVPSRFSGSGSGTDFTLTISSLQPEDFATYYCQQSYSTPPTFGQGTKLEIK
B14: antibody 395 (antibody, V domains shown)
VH: QVQLVQSGSELKKPGASVKLSCQASGYTFSNHAMNWVRQAPGQGLEWMGWINTNTGNPTYAQGFTGRFVFSLDTSVGTAYLHISSLKAEDTAFYYCARASARPGVATNLDFWGQGTLVVVSS
VL: DIQMTQSPSSLSASVGDRVTITCRTSQNIDNYLNWYQQKPGKAPNLLIYAASRLHSGVPSRFSGSGSGTDFTLIISSLQPEDLATYYCQQSYSNPLTFGPGTKVDIR
B15: antibody 409 (antibody, V domains shown)
VH: QVTLRESGPALVKPTQTLTLTCTFSGFSLSTSGMCVSWIRQPPGKALEWLALIDWDDDKYYSTSLKTRLTISKDTSKNQVVLTMTNMDPVDTATYYCARTTYYYVSGRRAEFDPWGQGTLVTVSS
VL: NFMLTQPHSVSESPGKTVTISCTGSSGSIASNYVQWYQQRPGSAPTTVIYEDNQRPSGVPDRFSGSIDSSSNSASLTISGLKTEDEADYYCQSYDSSNQGVFGGGTKLTVL
B16: antibody 408 (antibody, V domains shown)
VH: QVQLVESGGGVVQPGRSLRLSCAASGFTFSSYAMHWVRQAPGKGLEWVAVISYDGSNKYYADSVKGRFTISRDNSRNTLYLQMNSLRAEDTAVYYCAKGADTPHYSGYDFLSVGYYYYGMDVWGQGTTVTVSS
VL: DIQMTQSPSSLSASVGDRVTITCRASQSISSYLNWYQQKPGKAPKLLIYAASSFQSGVPSRFSGSRSGTDFTLTISSLQPEDFATYYCQQSYSAPFTFGPGTKVDIKR
B17: anti-SARS-CoV-2 antibody 497 (antibody, V domains shown)
VH: QVQLQESGPGLVKPSQTLSLTCTVSGGSINSFGYYWSWIRQHPGKGLEWIGYIYYSGSTDYNPSLNSRVTISLDTSKNQFLLKLTSVTAADTAVYYCAKLTDYYDSSGYSFDYWGQGTLVTVSS
VL: DIQMTQSPSSVSASVGDRVTITCRASQDISRWLAWYQQKPGKAPKLLIYAASSLQSGVPSRFSGRGSGTELTLTISSLQPEDFATYFCQQAYSFPFTFGGGTKVEIK
B18: antibody 385 (antibody, V domains shown)
VH: QVQLVESGGGVVQPGRSLRLSCAASGFTFSSYAIHWVRQAPGKGLEWVAVISYDGSNKYYADSVKGRFTISRDNSKNTLYLQMNSLRAEDTAVYYCARPRSGSYWGAFDIWGQGTMVTVSS
VL: QSVLTQPPSVSGAPGQRVTISCTGSSSNIGARYDVHWYQQLPGTAPKLLIYGNSNRPSGVPDRFSGSKSGTSASLAITGLQAEDEADYYCQSYDSSLRGVFGGGTKLTVL
B19: anti-SARS-CoV-2 antibody 492 (antibody, V domains shown)
VH: QVQLVESGGGVVQPGRSLRLSCAASGFTFSSYGMHWVRQAPGKGLEWVAVISYDGSNKYYADSVKGRFTISRDNSKNTLYLQMNSLRAEDTAVYYCAKDGILWWWWGYFDYWGQGTLVTVSS
VL: B18 VL with R32G, Y33F, R98S, G99V
B20: anti-SARS-CoV-2 antibody 480 (antibody, V domains shown)
VH: B18 VH with I34M, S56N, A97V, P99T, R100N, W105Y, G106A, I110Y, M116L
VL: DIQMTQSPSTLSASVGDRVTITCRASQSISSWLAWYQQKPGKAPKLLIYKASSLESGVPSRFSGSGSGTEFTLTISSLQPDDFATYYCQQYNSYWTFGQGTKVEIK
B21: antibody 562 (antibody, V domains shown)
VH: B18 VH with I34M, P99A, R100S, S103G, W105Q, A107P, I110P, M116L
VL: QSALTQPASVSGSPGQSITISCTGTSSDVGGYNYVSWYQQHPGKAPKLMIYDVSNRPSGVSNRFSGSKSGNTASLTISGLQAEDEADYYCSSYTSSSTLLYVFGTGTKVTVLG
B22: antibody 462 (antibody, V domains shown)
VH: QVQLVESGGGVVQPGRSLRLSCAASGFTFSSYGMHWVRQAPGKGLEWVAVIWYDGNNKYYADSVKGRFTISRDNSKNTLYLQMNSLRAEDTAVYYCAKDPTWFGELPSYYYYGMDVWGQGTTVTVSS
VL: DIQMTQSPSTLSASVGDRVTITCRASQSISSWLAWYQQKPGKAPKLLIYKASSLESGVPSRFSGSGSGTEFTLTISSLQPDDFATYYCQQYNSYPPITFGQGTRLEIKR

Assays:
[1] = biological target: NCP-CoV (2019-nCoV) Spike Protein (S1 Subunit, His Tag) (SARS-CoV-2, UniProt P0DTC2 16-685); assay: HT-SPR (Carterra LSA), mAb on chip, S1 subunit (His tag) in solution, 25 C
[2] = biological target: SARS-CoV-2 full length spike protein, wild type, expressed on the surface of transiently transfected CHO cells (SARS-CoV-2, UniProt P0DTC2 14-1273)
[3] = biological target: SARS-CoV-2 spike (S) protein, full length, wild type (SARS-CoV-2, UniProt P0DTC2 14-1208)
[4] = biological target: T1, SARS-CoV-2 spike protein (nCoV-S Spike Protein Trimer, NIH) (SARS-CoV-2, UniProt P0DTC2 14-1208); assay: HT-SPR (Carterra LSA), mAb on chip, SARS-CoV-2 spike protein titrated, 25 C
T1 construct: also called S protein

[5] = biological target: T1, SARS-CoV-2 spike protein (nCoV-S Spike …); assay: HT-SPR (Carterra LSA), mAb on chip, SARS-CoV-2 spike protein titrated, 37 C

Binder	median fluorescence fold over isotype control [2] [fold over isotype]	median fluorescence fold over isotype [3] [fold over isotype]	further results
B1	–	–	Kd [1]: 235 nM
B2	9.7	–	–
B3	–	1090	–
B4	–	683	–
B5	–	–	Kd [4]: 7.93 nM; Kd [5]: 5.21 nM
B6	10.7	–	–
B7	9.23	–	–
B8	–	–	Kd [4]: 7.61 nM; Kd [5]: 0.0233 nM
B9	14.6	–	–
B10	–	847	–
B11	1.99	–	–
B12	–	902	–
B13	19.6	–	–
B14	7.8	–	–
B15	13.8	–	–
B16	–	–	Kd [1]: 171 nM
B17	–	630	–
B18	10.5	–	–
B19	–	664	–
B20	–	690	–
B21	–	–	Kd [4]: 0.173 nM; Kd [5]: 0.138 nM
B22	–	–	Kd [4]: 7.58 nM; Kd [5]: 4.62 nM
